Assay results: US20250171562A1

Biological target: mixture of three Der p 2 specific recombinant human IgE clones H10, H12, P4E (human) (UniProt P01854)
Experiment: RBL-SX38 IgE displacement, FACS

Sequence of mixture of three Der p 2 specific recombinant human IgE clones H10, H12, P4E (human) (P01854 other isoform, or with tags, fused parts or gaps): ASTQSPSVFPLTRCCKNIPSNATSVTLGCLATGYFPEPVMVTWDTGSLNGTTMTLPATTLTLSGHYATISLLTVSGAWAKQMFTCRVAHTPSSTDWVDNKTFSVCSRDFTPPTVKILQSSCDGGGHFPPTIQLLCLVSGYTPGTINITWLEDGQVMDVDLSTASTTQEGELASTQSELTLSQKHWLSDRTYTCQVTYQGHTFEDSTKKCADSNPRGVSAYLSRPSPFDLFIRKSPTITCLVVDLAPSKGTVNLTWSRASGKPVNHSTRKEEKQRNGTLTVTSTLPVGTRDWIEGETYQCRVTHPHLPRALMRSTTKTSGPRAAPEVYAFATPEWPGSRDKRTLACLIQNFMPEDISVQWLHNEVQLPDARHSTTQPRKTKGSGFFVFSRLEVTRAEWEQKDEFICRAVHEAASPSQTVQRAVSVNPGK

Max effect/effect 1 µM | Binder
12% | CIgG4B3A1(G4S)1 (Fc fusion) chain 1: GPPCPPCPAPEFLGGPSVFLFPPKPKDTLMISRTPEVTCVVVDVSQEDPEVQFNWYVDGVEVHNAKTKPREEQFNSTYRVVSVLTVLHQDWLNGKEYKCKVSNKGLPSSIEKTISKAKGQPREPQVYTLPPCQEEMTKNQVSLWCLVKGFYPSDIAVEWESNGQPENNYKTTPPVLDSDGSFFLYSRLTVDKSRWQEGNVFSCSVMHEALHNHYTQKSLSLSLGKGGGGSDVQLQESGGGLVQAGGSLRLSCAASGFIFRLAGMSWVRQAPGKGFEWVSGITMDGSTTNYADSVKGRFTISRDNSKNRLYLQMNSLKPEDTAVYYCARGAKGGYNDPRGQGTQVTVS chain 2: GPPCPPCPAPEFLGGPSVFLFPPKPKDTLMISRTPEVTCVVVDVSQEDPEVQFNWYVDGVEVHNAKTKPREEQFNSTYRVVSVLTVLHQDWLNGKEYKCKVSNKGLPSSIEKTISKAKGQPREPQVCTLPPSQEEMTKNQVSLSCAVKGFYPSDIAVEWESNGQPENNYKTTPPVLDSDGSFFLVSRLTVDKSRWQEGNVFSCSVMHEALHNHYTQKSLSLSLGKGGGGSEVQLLESGGGLVQPGGSLRLSCAASGFTFGNYDMAWVRQAPGKRPEWVSSIDTGGDITHYADSVKGRFTISRDNAKNTLYLQMNSLRPEDTAVYWCATDEEYALGPNEFDYYGQGTLVTVSS
94% | NIgG4B3A1(RS) (Fc fusion) chain 1: DVQLQESGGGLVQAGGSLRLSCAASGFIFRLAGMSWVRQAPGKGFEWVSGITMDGSTTNYADSVKGRFTISRDNSKNRLYLQMNSLKPEDTAVYYCARGAKGGYNDPRGQGTQVTVSRSGPPCPPCPAPEFLGGPSVFLFPPKPKDTLMISRTPEVTCVVVDVSQEDPEVQFNWYVDGVEVHNAKTKPREEQFNSTYRVVSVLTVLHQDWLNGKEYKCKVSNKGLPSSIEKTISKAKGQPREPQVYTLPPCQEEMTKNQVSLWCLVKGFYPSDIAVEWESNGQPENNYKTTPPVLDSDGSFFLYSRLTVDKSRWQEGNVFSCSVMHEALHNHYTQKSLSLSLGK chain 2: EVQLLESGGGLVQPGGSLRLSCAASGFTFGNYDMAWVRQAPGKRPEWVSSIDTGGDITHYADSVKGRFTISRDNAKNTLYLQMNSLRPEDTAVYWCATDEEYALGPNEFDYYGQGTLVTVSSRSGPPCPPCPAPEFLGGPSVFLFPPKPKDTLMISRTPEVTCVVVDVSQEDPEVQFNWYVDGVEVHNAKTKPREEQFNSTYRVVSVLTVLHQDWLNGKEYKCKVSNKGLPSSIEKTISKAKGQPREPQVCTLPPSQEEMTKNQVSLSCAVKGFYPSDIAVEWESNGQPENNYKTTPPVLDSDGSFFLVSRLTVDKSRWQEGNVFSCSVMHEALHNHYTQKSLSLSLGK
10% | CIgE4A1A1(GS3) (Fc fusion) chain 1: GPPCPPCPAPEFLGGPSVFLFPPKPKDTLMISRTPEVTCVVVDVSQEDPEVQFNWYVDGVEVHNAKTKPREEQFNSTYRVVSVLTVLHQDWLNGKEYKCKVSNKGLPSSIEKTISKAKGQPREPQVYTLPPCQEEMTKNQVSLWCLVKGFYPSDIAVEWESNGQPENNYKTTPPVLDSDGSFFLYSRLTVDKSRWQEGNVFSCSVMHEALHNHYTQKSLSLSLGKGGGGSGGGGSGGGGSEVQLLESGGGLVQPGGSLRLSCAASGFTFGNYDMAWVRQAPGKRPEWVSSIDTGGDITHYADSVKGRFTISRDNAKNTLYLQMNSLRPEDTAVYWCATDEEYALGPNEFDYYGQGTLVTVSS chain 2: GPPCPPCPAPEFLGGPSVFLFPPKPKDTLMISRTPEVTCVVVDVSQEDPEVQFNWYVDGVEVHNAKTKPREEQFNSTYRVVSVLTVLHQDWLNGKEYKCKVSNKGLPSSIEKTISKAKGQPREPQVCTLPPSQEEMTKNQVSLSCAVKGFYPSDIAVEWESNGQPENNYKTTPPVLDSDGSFFLVSRLTVDKSRWQEGNVFSCSVMHEALHNHYTQKSLSLSLGKGGGGSGGGGSGGGGSEVQLLESGGGLVQPGGSLRLSCAASGFTFGNYDMAWVRQAPGKRPEWVSSIDTGGDITHYADSVKGRFTISRDNAKNTLYLQMNSLRPEDTAVYWCATDEEYALGPNEFDYYGQGTLVTVSS
76% | CIgG4B3A1(G4S)3 (Fc fusion) chain 1: GPPCPPCPAPEFLGGPSVFLFPPKPKDTLMISRTPEVTCVVVDVSQEDPEVQFNWYVDGVEVHNAKTKPREEQFNSTYRVVSVLTVLHQDWLNGKEYKCKVSNKGLPSSIEKTISKAKGQPREPQVYTLPPCQEEMTKNQVSLWCLVKGFYPSDIAVEWESNGQPENNYKTTPPVLDSDGSFFLYSRLTVDKSRWQEGNVFSCSVMHEALHNHYTQKSLSLSLGKGGGGSGGGGSGGGGSDVQLQESGGGLVQAGGSLRLSCAASGFIFRLAGMSWVRQAPGKGFEWVSGITMDGSTTNYADSVKGRFTISRDNSKNRLYLQMNSLKPEDTAVYYCARGAKGGYNDPRGQGTQVTVS chain 2: GPPCPPCPAPEFLGGPSVFLFPPKPKDTLMISRTPEVTCVVVDVSQEDPEVQFNWYVDGVEVHNAKTKPREEQFNSTYRVVSVLTVLHQDWLNGKEYKCKVSNKGLPSSIEKTISKAKGQPREPQVCTLPPSQEEMTKNQVSLSCAVKGFYPSDIAVEWESNGQPENNYKTTPPVLDSDGSFFLVSRLTVDKSRWQEGNVFSCSVMHEALHNHYTQKSLSLSLGKGGGGSGGGGSGGGGSEVQLLESGGGLVQPGGSLRLSCAASGFTFGNYDMAWVRQAPGKRPEWVSSIDTGGDITHYADSVKGRFTISRDNAKNTLYLQMNSLRPEDTAVYWCATDEEYALGPNEFDYYGQGTLVTVSS
94% | NIgG4B3A1(G4S)1 (Fc fusion) chain 1: DVQLQESGGGLVQAGGSLRLSCAASGFIFRLAGMSWVRQAPGKGFEWVSGITMDGSTTNYADSVKGRFTISRDNSKNRLYLQMNSLKPEDTAVYYCARGAKGGYNDPRGQGTQVTVSGGGGSGPPCPPCPAPEFLGGPSVFLFPPKPKDTLMISRTPEVTCVVVDVSQEDPEVQFNWYVDGVEVHNAKTKPREEQFNSTYRVVSVLTVLHQDWLNGKEYKCKVSNKGLPSSIEKTISKAKGQPREPQVYTLPPCQEEMTKNQVSLWCLVKGFYPSDIAVEWESNGQPENNYKTTPPVLDSDGSFFLYSRLTVDKSRWQEGNVFSCSVMHEALHNHYTQKSLSLSLGK chain 2: EVQLLESGGGLVQPGGSLRLSCAASGFTFGNYDMAWVRQAPGKRPEWVSSIDTGGDITHYADSVKGRFTISRDNAKNTLYLQMNSLRPEDTAVYWCATDEEYALGPNEFDYYGQGTLVTVSSGGGGSGPPCPPCPAPEFLGGPSVFLFPPKPKDTLMISRTPEVTCVVVDVSQEDPEVQFNWYVDGVEVHNAKTKPREEQFNSTYRVVSVLTVLHQDWLNGKEYKCKVSNKGLPSSIEKTISKAKGQPREPQVCTLPPSQEEMTKNQVSLSCAVKGFYPSDIAVEWESNGQPENNYKTTPPVLDSDGSFFLVSRLTVDKSRWQEGNVFSCSVMHEALHNHYTQKSLSLSLGK
94% | NIgG4B3A1(G4S)2 (Fc fusion) chain 1: DVQLQESGGGLVQAGGSLRLSCAASGFIFRLAGMSWVRQAPGKGFEWVSGITMDGSTTNYADSVKGRFTISRDNSKNRLYLQMNSLKPEDTAVYYCARGAKGGYNDPRGQGTQVTVSGGGGSGGGGSGPPCPPCPAPEFLGGPSVFLFPPKPKDTLMISRTPEVTCVVVDVSQEDPEVQFNWYVDGVEVHNAKTKPREEQFNSTYRVVSVLTVLHQDWLNGKEYKCKVSNKGLPSSIEKTISKAKGQPREPQVYTLPPCQEEMTKNQVSLWCLVKGFYPSDIAVEWESNGQPENNYKTTPPVLDSDGSFFLYSRLTVDKSRWQEGNVFSCSVMHEALHNHYTQKSLSLSLGK chain 2: EVQLLESGGGLVQPGGSLRLSCAASGFTFGNYDMAWVRQAPGKRPEWVSSIDTGGDITHYADSVKGRFTISRDNAKNTLYLQMNSLRPEDTAVYWCATDEEYALGPNEFDYYGQGTLVTVSSGGGGSGGGGSGPPCPPCPAPEFLGGPSVFLFPPKPKDTLMISRTPEVTCVVVDVSQEDPEVQFNWYVDGVEVHNAKTKPREEQFNSTYRVVSVLTVLHQDWLNGKEYKCKVSNKGLPSSIEKTISKAKGQPREPQVCTLPPSQEEMTKNQVSLSCAVKGFYPSDIAVEWESNGQPENNYKTTPPVLDSDGSFFLVSRLTVDKSRWQEGNVFSCSVMHEALHNHYTQKSLSLSLGK
28% | CIgG4B3A1(G4S)2 (Fc fusion) chain 1: GPPCPPCPAPEFLGGPSVFLFPPKPKDTLMISRTPEVTCVVVDVSQEDPEVQFNWYVDGVEVHNAKTKPREEQFNSTYRVVSVLTVLHQDWLNGKEYKCKVSNKGLPSSIEKTISKAKGQPREPQVYTLPPCQEEMTKNQVSLWCLVKGFYPSDIAVEWESNGQPENNYKTTPPVLDSDGSFFLYSRLTVDKSRWQEGNVFSCSVMHEALHNHYTQKSLSLSLGKGGGGSGGGGSDVQLQESGGGLVQAGGSLRLSCAASGFIFRLAGMSWVRQAPGKGFEWVSGITMDGSTTNYADSVKGRFTISRDNSKNRLYLQMNSLKPEDTAVYYCARGAKGGYNDPRGQGTQVTVS chain 2: GPPCPPCPAPEFLGGPSVFLFPPKPKDTLMISRTPEVTCVVVDVSQEDPEVQFNWYVDGVEVHNAKTKPREEQFNSTYRVVSVLTVLHQDWLNGKEYKCKVSNKGLPSSIEKTISKAKGQPREPQVCTLPPSQEEMTKNQVSLSCAVKGFYPSDIAVEWESNGQPENNYKTTPPVLDSDGSFFLVSRLTVDKSRWQEGNVFSCSVMHEALHNHYTQKSLSLSLGKGGGGSGGGGSEVQLLESGGGLVQPGGSLRLSCAASGFTFGNYDMAWVRQAPGKRPEWVSSIDTGGDITHYADSVKGRFTISRDNAKNTLYLQMNSLRPEDTAVYWCATDEEYALGPNEFDYYGQGTLVTVSS
1% | CIgG4B3A1(RS) (Fc fusion) chain 1: GPPCPPCPAPEFLGGPSVFLFPPKPKDTLMISRTPEVTCVVVDVSQEDPEVQFNWYVDGVEVHNAKTKPREEQFNSTYRVVSVLTVLHQDWLNGKEYKCKVSNKGLPSSIEKTISKAKGQPREPQVYTLPPCQEEMTKNQVSLWCLVKGFYPSDIAVEWESNGQPENNYKTTPPVLDSDGSFFLYSRLTVDKSRWQEGNVFSCSVMHEALHNHYTQKSLSLSLGKRSDVQLQESGGGLVQAGGSLRLSCAASGFIFRLAGMSWVRQAPGKGFEWVSGITMDGSTTNYADSVKGRFTISRDNSKNRLYLQMNSLKPEDTAVYYCARGAKGGYNDPRGQGTQVTVS chain 2: GPPCPPCPAPEFLGGPSVFLFPPKPKDTLMISRTPEVTCVVVDVSQEDPEVQFNWYVDGVEVHNAKTKPREEQFNSTYRVVSVLTVLHQDWLNGKEYKCKVSNKGLPSSIEKTISKAKGQPREPQVCTLPPSQEEMTKNQVSLSCAVKGFYPSDIAVEWESNGQPENNYKTTPPVLDSDGSFFLVSRLTVDKSRWQEGNVFSCSVMHEALHNHYTQKSLSLSLGKRSEVQLLESGGGLVQPGGSLRLSCAASGFTFGNYDMAWVRQAPGKRPEWVSSIDTGGDITHYADSVKGRFTISRDNAKNTLYLQMNSLRPEDTAVYWCATDEEYALGPNEFDYYGQGTLVTVSS
